This data set deals with T1, HER2 epitope peptide (extracellular juxtamembrane region) (human, UniProt P04626).
T1 chain: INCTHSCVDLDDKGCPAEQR
The data set can be described thus: bead-bound peptide pull-down, HPLC detection.

B1: HB5 (FITC-labeled) (ssDNA)
DNA: AACCGCCCAAATCCCTAAGAGTCTGCACTTGTCATTTTGTATATGTATTTGGTTTTTGGCTCTCACAGACACACTACACACGCACA
Take B1: the Kd amounted to 34.7 nM.

B2: HB5-FITC-PL-Peptide probe (ssDNA)
DNA: B1 DNA
modifications: 5'-thiol-C6 conjugated via maleimide to …-PL-K(FITC)FK-Mal (PL = photocleavable o-nitrobenzyl linker)
Consider B2, for which the dissociation constant (Kd) is 67.4 nM.

(Values after PMC8162480.)
